Data: patent publication US20170137467A1 (CHROMOTEK, published 2017)
Square brackets hold non-standard residues; d marks the D form. GABA = NCCCC(=O)O

T1: BC2T D2Q (human)
T1 construct: position 2 library, row Q
T1 peptide: Ac-PQRKAAVSHWQQ-NH2

T2: BC2T P1D (human)
T2 construct: position 1 library, row D
T2 peptide: Ac-DDRKAAVSHWQQ-NH2

T3: BC2T P1Q (human)
T3 construct: position 1 library, row Q
T3 peptide: Ac-QDRKAAVSHWQQ-NH2

T4: BC2T A6P (human)
T4 construct: position 6 library (BC2TA6X), row P
T4 peptide: Ac-PDRKAPVSHWQQ-NH2

T5: BC2T A5S (human)
T5 construct: position 5 library, row S
T5 peptide: Ac-PDRKSAVSHWQQ-NH2

T6: BC2T P1Y (human)
T6 construct: position 1 library, row Y
T6 peptide: Ac-YDRKAAVSHWQQ-NH2

T7: BC2T R3W (human)
T7 construct: position 3 library (BC2TR3X), row W
T7 peptide: Ac-PDWKAAVSHWQQ-NH2

T8: BC2T V7K (human)
T8 construct: position 7 library, row K
T8 peptide: Ac-PDRKAAKSHWQQ-NH2

T9: BC2T D2E (human)
T9 construct: position 2 library, row E
T9 peptide: Ac-PERKAAVSHWQQ-NH2

T10: BC2T A5T (human)
T10 construct: position 5 library, row T
T10 peptide: Ac-PDRKTAVSHWQQ-NH2

T11: BC2T K4C(Abu) (human, not fully specified (residue 4))
T11 construct: position 4 library, row C(Abu) / C*
T11 peptide: Ac-PDRCAAVSHWQQ-NH2

T12: BC2T V7T (human)
T12 construct: position 7 library, row T
T12 peptide: Ac-PDRKAATSHWQQ-NH2

T13: BC2T P1H (human)
T13 construct: position 1 library, row H
T13 peptide: Ac-HDRKAAVSHWQQ-NH2

T14: BC2T A6W (human)
T14 construct: position 6 library (BC2TA6X), row W
T14 peptide: Ac-PDRKAWVSHWQQ-NH2

T15: BC2T K4W (human)
T15 construct: position 4 library, row W
T15 peptide: Ac-PDRWAAVSHWQQ-NH2

T16: BC2T P1R (human)
T16 construct: position 1 library, row R
T16 peptide: Ac-RDRKAAVSHWQQ-NH2

T17: BC2T V7Y (human)
T17 construct: position 7 library, row Y
T17 peptide: Ac-PDRKAAYSHWQQ-NH2

T18: BC2T D2N (human)
T18 construct: position 2 library, row N
T18 peptide: Ac-PNRKAAVSHWQQ-NH2

T19: BC2T D2K (human)
T19 construct: position 2 library, row K
T19 peptide: Ac-PKRKAAVSHWQQ-NH2

T20: BC2T D2R (human)
T20 construct: position 2 library, row R
T20 peptide: Ac-PRRKAAVSHWQQ-NH2

T21: BC2T P1F (human)
T21 construct: position 1 library, row F
T21 peptide: Ac-FDRKAAVSHWQQ-NH2

T22: BC2T A6C(Abu) (human, SMILES …)
T22 construct: position 6 library (BC2TA6X), row C(Abu) / C*
T22 peptide: Ac-PDRKA[GABA]VSHWQQ-NH2


Key:
Assay in all cases: library pulldown, LC-MS of supernatant; ratio vs GFP-Nb control (0=captured, 1=not captured)
BC2T D2Q = molecular target: T1, BC2T D2Q
Source text: (§1) In total, 12 different BC2T libraries displaying all 20 proteinogenic amino acids in one single position of the peptide were used in immunoprecipitation experiments. […] The direct comparison with the GFP-Nb made it possible to determine the quantitative degree of peptide capture without the need of labeled standards. […] The more peptide was captured the more the value approximates 0. It was not possible to discriminate between isoleucine (I) and leucine (L) peptide versions since these peptides are isobaric.
(§2) To investigate the binding specificity of the BC2T and derived mutants peptide libraries for each amino acid position of the sequence […] (SEQ ID NO:4) were synthesized with acetyl and amide groups located at the N-termini or C-termini respectively (Intavis). […] Incubations were performed in 300 μl PBS/0.01% CHAPS for 1 h on a HulaMixer (Life Technologies). Subsequent to a centrifugation step 10 μl supernatant were analyzed in a LC-MS procedure. Peptides were separated using an UltiMate3000 RSLCnano System (Thermo Scientific), composed of a C18 PepMap100μ-Precolumn (300 μm×5 mm; particle size: 5 μm; pore size: 100 Å—Thermo Scientific) and a C18 analytical column (Acclaim Rapid Separation LC (RSLC) Column: 150 mm×5 mm; particle size: 2.2 μm; pore size: 100 Å—Thermo Scientific). A step gradient was applied starting at 8% and ending after 20 min at 30% eluent B (80% acetonitrile, 20% H₂O, 0.1% formic acid).

BC2T P1D = molecular target: T2, BC2T P1D
Source text: as §1, §2

BC2T P1Q = molecular target: T3, BC2T P1Q
Source text: as §1, §2

BC2T A6P = molecular target: T4, BC2T A6P
Source text: as §1, §2

BC2T A5S = molecular target: T5, BC2T A5S
Source text: as §1, §2

BC2T P1Y = molecular target: T6, BC2T P1Y
Source text: as §1, §2

BC2T R3W = molecular target: T7, BC2T R3W
Source text: as §1, §2

BC2T V7K = molecular target: T8, BC2T V7K
Source text: as §1, §2

BC2T D2E = molecular target: T9, BC2T D2E
Source text: as §1, §2

BC2T A5T = molecular target: T10, BC2T A5T
Source text: as §1, §2

BC2T K4C(Abu) = molecular target: T11, BC2T K4C(Abu)
Source text: as §1, §2

BC2T V7T = molecular target: T12, BC2T V7T
Source text: as §1, §2

BC2T P1H = molecular target: T13, BC2T P1H
Source text: as §1, §2

BC2T A6W = molecular target: T14, BC2T A6W
Source text: as §1, §2

BC2T K4W = molecular target: T15, BC2T K4W
Source text: as §1, §2

BC2T P1R = molecular target: T16, BC2T P1R
Source text: as §1, §2

BC2T V7Y = molecular target: T17, BC2T V7Y
Source text: as §1, §2

BC2T D2N = molecular target: T18, BC2T D2N
Source text: as §1, §2

BC2T D2K = molecular target: T19, BC2T D2K
Source text: as §1, §2

BC2T D2R = molecular target: T20, BC2T D2R
Source text: as §1, §2

BC2T P1F = molecular target: T21, BC2T P1F
Source text: as §1, §2

BC2T A6C(Abu) = molecular target: T22, BC2T A6C(Abu)
Source text: as §1, §2

Binder | ratio (BC2T D2Q) | ratio (BC2T P1D) | ratio (BC2T P1Q) | ratio (BC2T A6P) | ratio (BC2T A5S) | ratio (BC2T P1Y) | ratio (BC2T R3W) | ratio (BC2T V7K) | ratio (BC2T D2E) | ratio (BC2T A5T) | ratio (BC2T K4C(Abu)) | ratio (BC2T V7T) | ratio (BC2T P1H) | ratio (BC2T A6W) | ratio (BC2T K4W) | ratio (BC2T P1R) | ratio (BC2T V7Y) | ratio (BC2T D2N) | ratio (BC2T D2K) | ratio (BC2T D2R) | also measured
BC2 nanobody (BC2-Nb) (VHH, immobilised on agarose/sepharose beads in this assay; also called BC2 nanotrap (immobilised form); not shown: C-terminal 6xHis-tag added by pHEN6 vector) VHH: QVQLVESGGGLVQPGGSLTLSCTASGFTLDHYDIGWFRQAPGKEREGVSCINNSDDDTYYADSVKGRFTIFMDNAKDTVYLQMNSLKPEDTAIYYCAEARGCKRGRYEYDFWGQGTQVTVSS | 0.1 | 1 | 0.6 | 1.1 | 0.1 | 0.1 | 0.8 | 0.3 | 0.2 | 0.1 | 0.1 | 0.2 | 0.3 | 1.1 | 0.3 | 0.2 | 0.1 | 0.2 | 0.2 | 0.1 | ratio (BC2T P1F): 0.2; ratio (BC2T A6C(Abu)): 0.1
BC2-NbR106S (VHH, immobilised on beads in this assay; not shown: C-terminal 6xHis-tag added by pHEN6 vector) VHH: QVQLVESGGGLVQPGGSLTLSCTASGFTLDHYDIGWFRQAPGKEREGVSCINNSDDDTYYADSVKGRFTIFMDNAKDTVYLQMNSLKPEDTAIYYCAEARGCKRGSYEYDFWGQGTQVTVSS | 0.2 | 0.8 | 0.7 | 1 | 0.4 | 0.3 | 1 | 0.3 | 0.4 | 0.3 | 0.3 | 0.3 | 0.6 | 1 | 0.8 | 0.4 | 0.3 | 0.3 | 0.2 | 0.2 | ratio (BC2T P1F): 0.3; ratio (BC2T A6C(Abu)): 0.3
